B1: SMG5 (parent)
chain: TNPDLIIVCAQSSQSLWNRLSVLL

Variants of: B1
Assay: protein stability index of a GFP-peptide fusion (GPS, HEK-293T) (PSI 1-6); higher = more stable
Conditions: c terminus: a fixed tail appended
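Note: lentivirally expressed fusions sorted by FACS into six bins by GFP to DsRed ratio, PSI derived from sequencing read proportions per bin multiplied by bin number.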

Protein stability index, by site and new letter:
T1: R 1.37, P 1.98, A 1.38, Q 3.39, M 2.97, Y 1.66, H 2.44, F 2.28, D 1.57, V 2.84, I 3.34, K 4.48, L 2.36, W 2.35, N 3.25
S15: Y 2.49, L 2.45, F 4.58, N 3.11, T 1.44, C 3.21, I 4.01, G 2.9, M 3.28, H 2.18, K 3.11, E 2.58, P 3.51, W 1.76, A 2.62, R 1.25, Q 2.12, D 2.19
V8: G 2.27, T 1.72, E 1.56, A 1.43, R 2.22, H 1.91, C 1.36, L 3.74, N 1.88, W 2.69, K 1.47, D 2.09, I 2.93, S 1.7, M 1.46, Y 2.59, P 1.31, Q 1.85
Q11: K 2.89, P 3.62, C 3.76, E 1.32, D 3.08, N 2, L 3.05, V 3.29, W 1.54, M 2.81, Y 4.08, T 3.57, G 2.09, F 1.67, R 2.19
I6: W 2.5, K 2.36, C 1.26, H 1.66, L 2.64, S 2.87, G 2.65, D 1.8, M 1.93, N 2.4, E 2.34, R 2.2, Q 3.05, Y 2.83, V 4.02, T 1.79, A 2.1, P 2.57, F 2.5
Q14: G 2.23, E 1.6, P 2.09, Y 3.2, A 3.98, V 3.03, R 2.73, T 3.58, N 2.81, L 1.6, S 2.68, K 3.23, D 3.38, M 2.22
P3: W 3.4, R 3.61, I 4.44, T 2.8, S 2.5, M 2.64, L 2.29, N 2.52, F 2.18, V 4.46, E 2.57, D 1.77, K 2.48, G 3.64, Q 1.71, A 3.05
L16: Y 2.81, H 3.7, E 2.42, M 3.23, T 3.24, P 3.37, S 2.53, I 2.02, A 2.1, K 3.19, D 3.33, Q 2.55, N 2.81, F 3.11, C 2.91, W 1.93, V 1.51, R 2.94
W17: Y 2.88, A 4.21, E 3, M 3.06, P 2.82, L 3.96, K 2.05, Q 1.9, I 2.47, S 3.57, V 2.79, F 3.58, C 4.36, D 1.77, T 2.58
A10: D 2.01, C 2.61, G 1.98, N 1.95, H 2.68, Y 3.09, K 1.59, I 3.25, V 4.35, P 4.01, W 2.35, R 1.8, T 2.17, F 3.77, M 2.8, Q 2.4, S 2.94
N2: H 1.88, I 2.22

From the supplement of paper PMC10567573
